Series [1] addresses T1, CD73 protein on cancer cells (Homo sapiens, UniProt P21589).
T1 construct: present on the surface of human cancer cells of a total of approx. 30 tested cell lines; endogenous in cells; host or cells: about 30 human cancer cell lines, e.g. U138 MG, GBM20, MDA-MB231, T47D
T1 sequence (P21589 27-549): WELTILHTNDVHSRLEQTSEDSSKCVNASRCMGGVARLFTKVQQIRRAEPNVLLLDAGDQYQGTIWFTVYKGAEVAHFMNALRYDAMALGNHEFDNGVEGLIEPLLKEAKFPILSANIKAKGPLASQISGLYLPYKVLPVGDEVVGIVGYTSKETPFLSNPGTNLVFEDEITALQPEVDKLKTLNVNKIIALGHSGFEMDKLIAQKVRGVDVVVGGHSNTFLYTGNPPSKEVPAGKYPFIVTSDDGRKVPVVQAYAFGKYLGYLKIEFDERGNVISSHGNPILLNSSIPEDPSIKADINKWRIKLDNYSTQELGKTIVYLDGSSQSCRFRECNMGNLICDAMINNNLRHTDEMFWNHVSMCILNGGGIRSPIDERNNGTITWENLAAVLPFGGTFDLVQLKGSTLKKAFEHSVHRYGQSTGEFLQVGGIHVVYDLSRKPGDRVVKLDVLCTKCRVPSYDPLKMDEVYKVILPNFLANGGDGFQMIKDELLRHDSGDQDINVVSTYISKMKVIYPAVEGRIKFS
In words: Flow cytometry (FACS) with 22E6 and anti-rat-IgG fluorophore-labeled secondary mAb on human cancer cell lines. Type of series: binding. The settings on record: approx. 30 tested human cancer cell lines, e.g. U138 MG, GBM20, MDA-MB231, T47D. As for the experimental part: (§1) FIG. 3: mAb 22E6 recognizes CD73 on cancer cells. […] Shown are 4 representative cell lines of a total of approx. 30 tested cell lines. U138 MG and GBM20 are glioblastoma cell lines, MDA-MB231 and T47D are human breast cancer cell lines. (B) Immunoblot with the same cell line, using a commercial CD73 mAb. […] Input=U138 lysate.
(§2) In this example, mAb 22E6 binding affinity was characterized (FIG. 3). […] Using a special flow cytometry technique, a fluorescence-activated cell sorting (FACS) with 22E6 and an anti-rat-IgG-specific, fluorophore-labeled secondary mAb, it was shown that the protein recognized by the 22E6 mAb of the invention is present on the surface of human cancer cells of a total of approx. 30 tested cell lines. U138 MG and GBM20 are glioblastoma cell lines, MDA-MB231 and T47D are human breast cancer cell lines. In order to compare the specificity of mAb 22E6 with the specificity of a commercial CD73 mAb an immunoblot with the same cell lines (U138 MG, GBM20, MDA-MB231 and T47D) was performed using the commercial CD73 mAb as shown in FIG. 3B.

A further series concerns the target T2, CD73 protein (Homo sapiens, UniProt P21589).
T2 construct: immunoprecipitation of the CD73 protein from lysates of U138 glioblastoma cells; endogenous in cells; host or cells: U138 glioblastoma cells (lysate)
T2 sequence (P21589 27-549): T1 sequence (P21589 27-549)
In words: Immunoprecipitation of CD73 from U138 glioblastoma cell lysates followed by immunoblot with commercial CD73 mAb. Type of series: binding. The settings on record: U138 glioblastoma lysate, versus isotype mAb. As for the experimental part: as §1, §2
For orientation: A western blot detects proteins with antibodies after separation by electrophoresis.

The test system of series [2] is CD73-positive human A375 melanoma cells. As to the kind of experiment: AMP to adenosine conversion by CD73-positive A375 melanoma cells. Type of series: cell-based. The settings on record: A375 melanoma cells incubated with AMP for 60 min. The method, then:
CD73-positive human A375 melanoma cells were incubate with AMP for 60 min and the concentration of AMP (left) and ADO (right) in the supernatant were measured. APCP is a small-molecule specific CD73 inhibitor.
(§3) Adenosine 5′-(α,β-methylene)diphosphate (APCP) is a small-molecule specific CD73 inhibitor.

For the next series, the system named is human CLL cells. As to the kind of experiment: ADO generation by human CLL cells. Type of series: cell-based.
Text: APCP is a CD73 small molecule inhibitor.
as §3

Series [3] has as its system peripheral blood mononuclear cells. In words: TNFα release in mixed lymphocyte reactions (ELISA). Format: cell-based. The conditions noted are these: 5×10^5 PBMCs each from two donors, 22E6 50 μg/ml, 37°, 24 h, versus GSF-mAb. As for the experimental part:
5×10^5 peripheral blood mononuclear cells each from two out of three different donors (A, B, C) were co-incubated in standard cell culture medium at 37° for 24 h with 22E6 (50 μg/ml) or a GSF-mAb (50 μg/ml) and the amount of TNFα was measured with a commercial ELISA assay.
Accordingly, 5×10^5 peripheral blood mononuclear cells (PBMCs) each from two out of three different donors (A, B, C) were co-incubated in standard cell culture medium at 37° for 24 h with 22E6 (50 μg/ml) or a GSF-mAb (50 μg/ml) and the amount of TNFα was measured with a commercial ELISA assay.
Background: An ELISA detects its analyte on a solid surface through an enzyme-linked reagent.

For series [4], the target named is T3, CD73 on cancer derived EVs (Homo sapiens, UniProt P21589).
T3 construct: from tissue; host or cells: extracellular vesicles from malignant ascites (ovarian cancer patient)
T3 sequence (P21589 27-549): T1 sequence (P21589 27-549)
As to the kind of experiment: ADO production by EVs from malignant ascites (inorganic phosphate, malachite green assay). Format: biochemical. The conditions noted are these: phosphate-free buffer, 1 mM AMP, 60 min, versus isotype mAb. The method, then: FIG. 9: 22E6 blocks ADO production by EVs from malignant ascites. EVs were incubated in phosphate-free buffer in the presence of 1 mM AMP with APCP, 22E6 or an isotype mAb for 60 min and the concentration of inorganic phosphate (Pi; produced alongside the dephosphorylation of AMP) was quantified with a malachite green assay.
Accordingly, EVs were incubated in phosphate-free buffer in the presence of 1 mM AMP with APCP, 22E6 or an isotype mAb for 60 min and the concentration of inorganic phosphate (Pi; produced alongside the dephosphorylation of AMP) was quantified with a standard malachite green assay. Based on the above it was concluded that 22E6 inhibits CD73 on cancer derived EVs.

For another series, the target named is T4, soluble CD73 protein (Homo sapiens, UniProt P21589).
T4 sequence (P21589 27-549 limits assumed): T1 sequence (P21589 27-549)
In words: Inhibitory preference: enzyme activity of soluble CD73. The conditions noted are these: FIG. 10. Type of series: biochemical.

For series [5], the target named is T5, membrane-bound form of CD73 protein (Homo sapiens, UniProt P21589).
T5 sequence (P21589 27-549): T1 sequence (P21589 27-549)
In words: Inhibitory preference: enzymatic activity of membrane-bound CD73. Type of series: biochemical. The conditions noted are these: FIG. 10.

The test system of series [6] is Peripheral blood mononuclear cells (PBMCs). As to the kind of experiment: IFN-γ release by PBMCs (ELISA). Type of series: cell-based. The conditions noted are these: PBMCs from two donors incubated separately; 22E6 0.5 μg/ml and 5 μg/ml; 24 h; versus isotyp antibody. As for the experimental part: FIG. 15: Massive release of interferon-gamma (IFN-γ) being induced by mAB 22E6 in comparison to an isotyp antibody. IFN-γ being a marker for the activation of cytotoxic T-cells. Peripheral blood mononuclear cells (PBMCs) from two different donors were incubated separately as indicated at 37° C. for 24 h. Interferon-gamma (IFN-γ) in the supernatant was then quantified by a standard ELISA assay.
Peripheral blood mononuclear cells (PBMCs) from two different donors were incubated separately in standard cell culture medium at 37^0 for 24 h with 22E6 (0.5 μg/ml and 5 μg/ml), APCP (1 μM and 5 μM), isotyp antibody (5 μg/ml), aPD-1 (5 μg/ml) and control (5 μg/ml). The amount of interferon-gamma (IFN-γ) in the supernatant was then measured with a commercial ELISA assay.

Here are results for one molecule from patent US11530273B2, “Anti-CD73 monoclonal antibody, encoding nucleic acids and method for producing” (HELMHOLTZ ZENTRUM MÜNCHEN—DEUTSCHES FORSCHUNGSZENTRUM FÜR …, priority 2017, dated 2022).

B1: 22E6: rat monoclonal anti-CD73 antibody from immunization with GBM20 glioblastoma EVs; VH SEQ ID NO: 9, VL SEQ ID NO: 13 (antibody, listed as Rattus norvegicus, V domains shown)
VH: EVQLVESGGGLVQPGRSMKLSCAASGFTFSFYYMAWVRQAPTKGLEWVASISTGGGNTYYRDSVKGRFTISRDDAKSTLYLQMDSLRSEETATYYCARHGGDYYGYRGGYFDYWDQGVMVTVSS
VL: DIQMTQTPSSMPASLGERVTISCRASQGINNYLNWYQQKPDGTIKPLIYYTSNLQSGVPSRFSGSGSGTDYSLTISSLEPEDFAMYYCQQYDNSPYTFGAGTKLELK
modifications: (1)..(124) VH region; SITE (26)..(32) VH complementary determining region 1 (VH CDR1); SITE (52)..(57) VH complementary determining region 2 (H-CDR2); SITE (99)..(113) VH complementary determining region 3 (H-CDR3); (1)..(107) VL region; SITE (24)..(34) VL complementary determining region 1 (L-CDR1); SITE (50)..(56) VL complementary determining region 2 (L-CDR2); SITE (89)..(97) VL complementary determining region 3 (L-CDR3)
On to B1, for which, in series [1], the “recognition of CD73 on the surface of cancer cells” value is listed as “recognizes CD73 protein on cancer cells”. In the series with CD73 protein, the “specificity for CD73 by immunoprecipitation” value is “demonstrated the specificity of 22E6”. Moreover, in [2], the “adenosine production (AMP and ADO concentration in supernatant)” value is “blocks adenosine production”. Also, the ADO generation result with human CLL cells is “inhibits ADO generation by human CLL cells”. For the same molecule, the “release of TNFα” value in series [3] is “increases the release of TNFα”. For the same molecule, in series [4], the “ADO production by EVs (inorganic phosphate concentration)” value is recorded as “blocks ADO production by EVs derived from malignant ascites”. Moreover, the “effect on the enzyme activity of soluble CD73 protein” value with soluble CD73 protein is listed as “no or essentially no effect”. For the same molecule, in series [5], the “inhibitory preference, membrane-bound versus soluble form of CD73” value is “inhibitory preference for enzymatic activity of a membrane-bound form of CD73 protein”. For the same molecule, the “release of IFN-γ in the supernatant” value in series [6] was “increases massive release of IFN-γ”.
